# ± gives the uncertainty stated by the source.
# Assay: amyloid nucleation score (Sup35N fusion, yeast selection) (log enrichment); library NNK1; higher = more nucleation; inactive = no reads after selection
# Outline: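 The nucleation score is the DiMSum log enrichment of output over input reads, centred on the mode score of non-aggregating sequences. Only sequences with 100 or more input reads were scored, using Illumina sequencing of input and output plasmid inserts. Psi-negative yeast expressing Sup35N fused to peptides of 20 random codons were induced 24 hours with 100 μM copper sulfate and grown 7 days at 30°C on medium lacking adenine and uracil.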
row,Substance,amyloid nucleation score
1,FMMSNWTNLNSWKTL,-0.122 ± 0.23
2,AISTCQKRVYFWVQSGFVT,-0.072 ± 0.2
3,LIFRRGTALFVLPVARYRCA,-1.57 ± 1.8
4,KVVDNAYSSDSLYFVGLFFW,1.25 ± 0.84
5,DSDLRLNLCELTFVPWRRSG,2.86 ± 0.19
6,IKMDFTFICIRVRGV,0.343 ± 1.4
7,GQIIMCAARLWLGKGCVS,-0.588 ± 1
8,RYISTLYEMNLKYVNVVQFH,6.416 ± 0.045
9,LRPSPKVWHDFWGMM,0.437 ± 0.47
10,ILEFDDKKVLNLVEGKLLGA,-0.383 ± 1.7
11,SSSEGRWMGYGP,-0.276 ± 0.53
12,AYASFDGDPEGRGFTSSKGD,inactive
13,FWVSCRSMCEIRVSLKLRLN,0.719 ± 0.59
14,LSWFC,-0.504 ± 0.43
15,AINSSFWSVGLILEIDMYSY,-0.148 ± 0.45
16,GILFDLICIDLCFIGVLLKM,-0.406 ± 0.44
17,FYWMMANRNTQCVVCFAVLR,-0.754 ± 0.54
18,ILIAKCSLPCYMKRGNAPCL,1.37 ± 0.59
19,GSICSVVVTMLVFSNKVTSL,-0.353 ± 0.6
20,HIGYCQSVSTFSR,10.2 ± 0.046
21,ILAWAMGI,0.777 ± 0.78
22,FCQLVIFY,2.8 ± 0.18

row,Substance,amyloid nucleation score
1,NFRKL,inactive
2,SLVWVCFWGICI,6.67 ± 0.088
3,WVKCRDWYSILF,5.19 ± 0.089
4,RWGATRFVVTS,0.304 ± 1.2
5,TGFGKKRATGWVAWGWEKLL,-0.468 ± 0.32
6,KCTELTTCRSPVMKGEAVWL,-0.052 ± 0.77
7,FVGNPSRRWLCHCKFIAGGH,0.137 ± 0.38
8,ISWMLLVLSFSMTVLNIRWN,-0.199 ± 0.33
9,FQSLGTFLDIQLCGHNLVAE,0.537 ± 0.34
10,VFCSQGMADTLR,0.409 ± 0.84
11,MKRDSFPLFNFCLA,0.137 ± 0.5
12,LDIRVCRLPRSVFNR,-0.002 ± 1
13,ICYTLTMVMAGVEAGGATLV,0.294 ± 0.95
14,HLWPVVSKGWDGFRCVSQVF,-1.25 ± 2.4
15,GRNRRDVMSRSYSVVG,-0.72 ± 1.1
16,DFFRFC,inactive
17,ELGKKYSLYSLVLAST,0.107 ± 0.67
18,GISFFGGLQASFLLPLASLL,0.413 ± 1.1
19,GVLYSDTLT,1.5 ± 0.14
20,INYTTWHYASCFRFT,2.82 ± 0.14
21,KLSYFSQEKRDNWPISRLPS,0.072 ± 0.3
22,ESIFFMTDTRSISLCST,-0.04 ± 0.27

row,Substance,amyloid nucleation score
1,INNSDSCVMLMMNRVFCHGG,6.085 ± 0.048
2,ETPNAFHVHMSYVYRLRWSR,2.75 ± 0.17
3,SHAFRITS,0.619 ± 0.85
4,TFCCIVSFF,7.199 ± 0.049
5,DLGKVVNCYFLFYR,1.51 ± 0.25
6,TKMCF,0.105 ± 0.41
7,FYLSYVIIYSSSIRCLSSCR,0.388 ± 0.71
8,VENNWIWVGRTLNATLDSHQ,0.082 ± 0.26
9,YLYIRLPVITVRLDWLFGAK,0.464 ± 0.84
10,ANYFQSICQFDVDRIKLNSA,inactive
11,FEYRRNLKCVSFFWSVGINR,-0.436 ± 0.4
12,DWVYITLNGLLW,-0.145 ± 0.46
13,RGSVIWRRRWTTESWSSYFG,1.25 ± 0.72
14,LFLCMDTYIYLNLNSGGYSG,4.8 ± 0.1
15,MSKYALNLAMVDRGLSKDQN,-0.898 ± 1.6
16,DVKCRLWIHAL,-0.066 ± 0.54
17,LCFMLEKWHLF,-0.566 ± 1.1
18,QCVGPSVCVFVHRLVGCYRA,3.34 ± 0.098
19,IVLTHYGSVLFHSYKGYFMW,-0.197 ± 0.29
20,IGSLGMCLQCYGAGV,0.147 ± 1.2
21,MKRTFRTLF,0.57 ± 0.41
22,FFSYVYGVSACFLVTLLFGP,-0.229 ± 0.32

row,Substance,amyloid nucleation score
1,VKCPVGDDHWGSRGDASVIT,-0.004 ± 0.8
2,LLNCLWDKMWTGLVRCIKNG,-0.075 ± 0.35
3,VSVTLLFFTVPIQGRVMQFS,0.148 ± 0.29
4,ASRILV,-0.552 ± 0.6
5,LRTGQGHYDRVVGHRHNLCA,-1.42 ± 0.9
6,MRNVTFTGLMLDSDWNVH,-0.338 ± 1.1
7,RNLYQFM,0.203 ± 0.27
8,SCSVSNGVFCNHGRGCGFRL,2.12 ± 0.18
9,GTNCHL,-0.036 ± 0.79
10,VLIFWWIMKGRFWVMCSAGY,0.621 ± 0.89
11,YLFPDVTRICCMGWSFTLLS,5.27 ± 0.053
12,MGTDRMCHS,0.328 ± 0.97
13,RLLLYG,inactive
14,LSMCYIFCDARYLYSQCFGV,4.38 ± 0.12
15,VSTNSDSLLGNCRKNPVHPS,1.03 ± 0.79
16,APNFLMCNRPGIF,3.02 ± 0.086
17,GRPICYKTHFSSLYVSEVDR,-1.19 ± 1.4
18,RRRASGHRASY,-0.52 ± 0.39
19,LCLLPG,0.888 ± 0.5
20,CLSRLLVLKYLSTWSKKWVW,-0.115 ± 0.25
21,ECGLGRSKEQSNGSWMCLHR,-0.464 ± 0.54

# From the supplement of paper PMC12042874
